Measurements: patent publication US20250084152A1 (DUKE UNIVERSITY, published 2025)

T1: B/MY04 N135R EHA2 (Influenza B virus B/Malaysia/2506/2004, UniProt P03461 374-538)
T1 chain: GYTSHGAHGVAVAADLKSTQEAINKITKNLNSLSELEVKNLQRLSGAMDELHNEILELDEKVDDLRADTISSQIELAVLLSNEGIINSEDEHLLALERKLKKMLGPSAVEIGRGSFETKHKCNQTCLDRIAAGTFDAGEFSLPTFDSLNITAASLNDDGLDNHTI

B1: S1V2-72 (antibody, V domains shown)
VH: QVQLVQSGAELKKPGASVKVSCKASGYTFTGNYIHWMRQVPGQGLEWMGWINPRTGDTHHAQKFQGRVDMTRDTSINTAYLELTRLESDDTALYYCARCVFATSQFDPWGQGTLVTVSS
VL: QSALTQPASVSGSPGQSITISCTGTNSDIGSHNLVSWYQQHPGKAPKVMIYDDSKRPSGVSNRFSGSKSGSTASLTISGLQSEDEADYYCCSYAGSSNWVFGGGTKLTLL
B2: M94 (antibody, V domains shown)
VH: QVQLVESGAEVKRPGASVKVACKASEYRFAASYIHWVRQAPGQGLEWMGWINLNSGDTKSSQKFQGWVTLTRDTSINTVYMEMTNLKFDDTAIYYCAKIILGGGGLDVWGQGTTVTVSS
VL: QSVLTQPRSVSGSLGQSVTISCSGTSTDVGSYEFVSWYQHHPGKAPKLIIYDVSKRPSGVPDRFSGSKSGNTASLAVSGLQSDDEADYYCSSYADTSNTWVFGGGTKLTVL
B3: 351-52 (antibody, V domains shown)
VH: QVQLAQSGAEVRKPGASVKVSCKASGYTFTDYYIHWVRQAPGQGLEWMGWINPDSGRTNYAQRFQGRVSMTSDTSISTAYMDLSRLRSDDTAVYFCAREGAHNYQHFDHWGQGTLVTVSA
VL: EIVLTQSPDTLSLSPGESATLFCRASQSVRSSYLAWYQQTPGQAPRLLIYGASSRATGIPDRFSGSGSGTDFTLTISRLEPEDFAVYYCQQFGRSSWTFGQGTKVEIK
B4: C1_ID26079-156194 (antibody, V domains shown)
VH: QVQLVQSGAEVKKPGASVKVSCKASGYTFTGNYMHWVRQAPGQGLEWMGWINPDSGGTNYAQRFQGRVTMTRDTSISTAYMELSRLTSDDTAMYYCARVMLRSSGFDSWGQGTLVTVSS
VL: QSALIQPASVSGSPGQSITISCTGTSSDVGTYNLVSWYQQHPGKVPKLMIYEASERPSGVSNRFSGSKSGNTASLTISGLQAEDEADYYCCSYAGNSAWVFGGGTKLTVL

Tests used:
B/MY04 N135R EHA2 [1] = target: T1, B/MY04 N135R EHA2; experiment: ELISA, rIgG (FIG. 20A)
B/MY04 N135R EHA2 [2] = target: T1, B/MY04 N135R EHA2; experiment: ELISA, rIgG (FIG. 13)

Row | Binder | binding result (B/MY04 N135R EHA2 [1]) | binding result (B/MY04 N135R EHA2 [2])
1 | B1 | no binding | 
2 | B2 |  | no binding
3 | B3 |  | no binding
4 | B4 |  | no binding
